This note sets out measurements from IntAct's records for PubMed 16467851.

To fix the notation:
B1: 1-phosphatidylinositol 4,5-bisphosphate phosphodiesterase gamma-1 (Bos taurus (Bovine)), P08487 (parent)
chain: MAGAASPCANGCGPSAPSDAEVVHLCRSLEVGTVMTLFYSKKSQRPERKTFQVKLETRQITWSRGADKIEGAIDIREIKEIRPGKTSRDFDRYQEDPAFRPDQSHCFVILYGMEFRLKTLSLQATSEDEVNMWIRGLTWLMEDTLQAATPLQIERWLRKQFYSVDRNREDRISAKDLKNMLSQVNYRVPNMRFLRERLTDLEQRTSDITYGQFAQLYRSLMYSAQKTMDLPFLEASALRAGERPELCRVSLPEFQQFLLEYQGELWAVDRLQVQEFMLSFLRDPLREIEEPYFFLDEFVTFLFSKENSIWNSQLDEVCPDTMNNPLSHYWISSSHNTYLTGDQFSSESSLEAYARCLRMGCRCIELDCWDGPDGMPVIYHGHTLTTKIKFSDVLHTIKEHAFVASEYPVILSIEDHCSIAQQRNMAQYFKKVLGDTLLTKPVDIAADGLPSPNQLKRKILIKHKKLAEGSAYEEVPTSVMYSENDISNSIKNGILYLEDPVNHEWYPHYFVLTSSKIYYSEETSSDQGNEDEEEPKEASGSTELHSNEKWFHGKLGAGRDGRHIAERLLTEYCIETGAPDGSFLVRESETFVGDYTLSFWRNGKVQHCRIHSRQDAGTPKFFLTDNLVFDSLYDLITHYQQVPLRCNEFEMRLSEPVPQTNAHESKEWYHASLTRAQAEHMLMRVPRDGAFLVRKRNEPNSYAISFRAEGKIKHCRVQQEGQTVMLGNSEFDSLVDLISYYEKHPLYRKMKLRYPINEEALEKIGTAEPDYGALYEGRNPGFYVEANPMPTFKCAVKALFDYKAQREDELTFTKSAIIQNVEKQEGGWWRGDYGGKKQLWFPSNYVEEMVSPAALEPEREHLDENSPLGDLLRGVLDVPACQIAVRPEGKNNRLFVFSISMASVAHWSLDVAADSQEELQDWVKKIREVAQTADARLTEGKMMERRKKIALELSELVVYCRPVPFDEEKIGTERACYRDMSSFPETKAEKYVNKAKGKKFLQYNRLQLSRIYPKGQRLDSSNYDPLPMWICGSQLVALNFQTPDKPMQMNQALFLAGGHCGYVLQPSVMRDEAFDPFDKSSLRGLEPCAICIEVLGARHLPKNGRGIVCPFVEIEVAGAEYDSIKQKTEFVVDNGLNPVWPAKPFHFQISNPEFAFLRFVVYEEDMFSDQNFLAQATFPVKGLKTGYRAVPLKNNYSEGLELASLLVKIDVFPAKQENGDLSPFGGASLRERSCDASGPLFHGRAREGSFEARYQQPFEDFRISQEHLADHFDGRDRRTPRRTRVNGDNRL
B2: 1-phosphatidylinositol 4,5-bisphosphate phosphodiesterase gamma-1 (Bos taurus (Bovine)), P08487 (parent)
chain: B1 chain
partner: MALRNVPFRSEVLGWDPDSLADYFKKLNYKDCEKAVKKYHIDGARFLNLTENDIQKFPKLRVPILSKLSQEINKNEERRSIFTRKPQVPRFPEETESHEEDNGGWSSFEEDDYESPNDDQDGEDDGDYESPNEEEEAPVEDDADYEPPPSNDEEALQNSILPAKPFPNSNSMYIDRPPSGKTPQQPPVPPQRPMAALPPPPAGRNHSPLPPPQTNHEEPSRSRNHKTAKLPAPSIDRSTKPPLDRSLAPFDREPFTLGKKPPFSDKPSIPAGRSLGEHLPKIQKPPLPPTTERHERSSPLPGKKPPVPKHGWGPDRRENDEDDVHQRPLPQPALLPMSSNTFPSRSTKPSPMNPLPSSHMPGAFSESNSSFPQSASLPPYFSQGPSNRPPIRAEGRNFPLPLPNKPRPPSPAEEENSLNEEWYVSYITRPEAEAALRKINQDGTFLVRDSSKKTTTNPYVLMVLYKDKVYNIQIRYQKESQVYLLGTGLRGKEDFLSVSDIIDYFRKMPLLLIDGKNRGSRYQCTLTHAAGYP
B3: 1-phosphatidylinositol 4,5-bisphosphate phosphodiesterase gamma-1 (Bos taurus (Bovine)), P08487 (parent)
chain: B1 chain
partner: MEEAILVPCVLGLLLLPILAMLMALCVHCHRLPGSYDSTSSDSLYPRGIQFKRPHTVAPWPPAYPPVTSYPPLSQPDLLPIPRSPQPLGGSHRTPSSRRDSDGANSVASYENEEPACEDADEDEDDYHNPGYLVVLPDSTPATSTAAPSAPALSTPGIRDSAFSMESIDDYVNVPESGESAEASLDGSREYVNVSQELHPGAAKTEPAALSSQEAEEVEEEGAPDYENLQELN
B4: 1-phosphatidylinositol 4,5-bisphosphate phosphodiesterase gamma-1 (Bos taurus (Bovine)), P08487 (parent)
chain: B1 chain
partner: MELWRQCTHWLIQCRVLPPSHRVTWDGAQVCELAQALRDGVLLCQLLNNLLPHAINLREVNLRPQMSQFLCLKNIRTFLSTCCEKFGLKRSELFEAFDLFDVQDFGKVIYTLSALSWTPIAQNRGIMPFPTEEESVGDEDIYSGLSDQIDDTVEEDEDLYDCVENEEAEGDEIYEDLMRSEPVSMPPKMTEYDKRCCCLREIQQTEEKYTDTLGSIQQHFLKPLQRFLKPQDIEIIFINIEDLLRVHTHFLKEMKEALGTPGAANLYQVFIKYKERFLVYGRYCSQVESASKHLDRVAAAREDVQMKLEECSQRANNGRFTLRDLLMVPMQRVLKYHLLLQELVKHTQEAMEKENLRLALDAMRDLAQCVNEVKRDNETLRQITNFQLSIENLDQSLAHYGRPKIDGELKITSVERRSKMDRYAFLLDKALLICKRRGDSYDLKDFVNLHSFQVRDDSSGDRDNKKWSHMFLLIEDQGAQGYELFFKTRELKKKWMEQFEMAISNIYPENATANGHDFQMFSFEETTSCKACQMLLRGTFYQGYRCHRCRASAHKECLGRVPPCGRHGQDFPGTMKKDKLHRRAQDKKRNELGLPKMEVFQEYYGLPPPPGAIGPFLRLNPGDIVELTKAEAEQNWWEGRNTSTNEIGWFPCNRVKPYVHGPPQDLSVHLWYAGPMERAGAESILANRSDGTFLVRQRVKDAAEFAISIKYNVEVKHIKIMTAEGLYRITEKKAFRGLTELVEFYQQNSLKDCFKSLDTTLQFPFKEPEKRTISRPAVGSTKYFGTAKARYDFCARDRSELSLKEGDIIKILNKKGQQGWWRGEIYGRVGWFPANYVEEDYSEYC

Variants of B1 are the subject of one test. The settings on record: with cbl_human CBL.
Take P842K: the “effect of a mutation on the interaction” value was “disrupting interaction”.

The variants in a further test derive from B2. Particulars: with lcp2_human LCP2, Q13094.
For the variant P842K, the “effect of a mutation on the interaction” value was “disrupting interaction”.

Variants of B2 are the subject of another test. Particulars: with lcp2_human LCP2, Q13094. This is another data set of the same source.
In the case of R696K, the “effect of a mutation on the interaction” value was “disrupting interaction”.

Regarding R694K, the “effect of a mutation on the interaction” value is recorded as “disrupting interaction”.

The variants in another test derive from B2. Particulars: with lcp2_human LCP2, Q13094. The source holds these as a separate data set.
For R586K, the “effect of a mutation on the interaction” value was “disrupting interaction”.

Variants of B3 are the subject of another test. The settings on record: with LAT.
Turning to R696K, the “effect of a mutation on the interaction” value is given as “disrupting interaction”.

On to R694K, for which the “effect of a mutation on the interaction” value is given as “disrupting interaction”.

For the variant P842K, the “effect of a mutation on the interaction” value is given as “disrupting interaction”.

In another test the parent is B3. Particulars: with LAT. This is another data set of the same source.
For R586K, the “effect of a mutation on the interaction” value is “disrupting interaction”.

The next test covers variants of B4. The settings on record: with vav_human VAV1, P15498.
Consider R586K, for which the “effect of a mutation on the interaction” value was “disrupting interaction”.

Variants of B4 are the subject of another test. Particulars: with vav_human VAV1, P15498. This is another data set of the same source.
Consider P842K, for which the “effect of a mutation on the interaction” value is “disrupting interaction”.

Another test covers variants of B4. The settings on record: with vav_human VAV1, P15498. The source holds these as a separate data set.
Regarding R694K, the “effect of a mutation on the interaction” value is “disrupting interaction”.

In the case of R696K, the “effect of a mutation on the interaction” value is recorded as “disrupting interaction”.
